For this data set, the target named is hRPA1;hRPA2;hRPA3 (Homo sapiens;Homo sapiens;Homo sapiens, UniProt P27694;P15927;P35244 1-616;1-270;1-121, ||). Put plainly: FRET kinetics.
hRPA1;hRPA2;hRPA3, sequence (P27694 whole entry, chain 1 of 3): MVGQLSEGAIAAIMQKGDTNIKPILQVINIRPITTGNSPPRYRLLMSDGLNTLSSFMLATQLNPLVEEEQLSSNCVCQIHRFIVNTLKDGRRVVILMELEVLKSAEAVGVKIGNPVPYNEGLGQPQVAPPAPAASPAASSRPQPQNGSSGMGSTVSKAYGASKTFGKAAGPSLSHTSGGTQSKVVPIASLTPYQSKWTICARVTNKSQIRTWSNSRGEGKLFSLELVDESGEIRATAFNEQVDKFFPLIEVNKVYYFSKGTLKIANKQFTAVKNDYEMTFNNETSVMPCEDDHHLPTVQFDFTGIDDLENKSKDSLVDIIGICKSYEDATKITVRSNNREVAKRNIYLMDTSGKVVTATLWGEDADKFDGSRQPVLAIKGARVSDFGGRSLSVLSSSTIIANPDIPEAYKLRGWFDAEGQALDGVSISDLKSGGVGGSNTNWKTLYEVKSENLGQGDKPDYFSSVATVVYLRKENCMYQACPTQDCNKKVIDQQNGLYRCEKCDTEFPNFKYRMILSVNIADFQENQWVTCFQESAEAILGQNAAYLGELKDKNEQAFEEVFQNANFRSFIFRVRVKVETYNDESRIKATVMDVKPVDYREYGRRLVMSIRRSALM
hRPA1;hRPA2;hRPA3, sequence (P15927 whole entry, chain 2 of 3): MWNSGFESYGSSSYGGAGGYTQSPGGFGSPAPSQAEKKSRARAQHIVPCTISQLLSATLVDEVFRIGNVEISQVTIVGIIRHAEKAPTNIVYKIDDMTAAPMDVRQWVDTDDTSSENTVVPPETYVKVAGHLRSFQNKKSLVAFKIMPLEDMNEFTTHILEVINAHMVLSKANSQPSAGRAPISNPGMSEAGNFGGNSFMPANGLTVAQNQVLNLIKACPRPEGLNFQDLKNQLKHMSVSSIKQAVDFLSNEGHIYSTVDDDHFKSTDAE
hRPA1;hRPA2;hRPA3, sequence (P35244 whole entry, chain 3 of 3): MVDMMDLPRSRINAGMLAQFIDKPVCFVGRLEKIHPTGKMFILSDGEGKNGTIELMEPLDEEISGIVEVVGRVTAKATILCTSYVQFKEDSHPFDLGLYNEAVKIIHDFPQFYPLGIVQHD

B1: H69-Q2 (structured_DNA)
DNA: GGGTTAGGGTTAGGGTTAGGGTTAGGGTTAGGGTTAGGGTTAGGGTTAGGGTTAGGGTTAGGGTTAGGG
modifications: 6FAM-dT in 4th repeat (T23); TAMRA-dT in 8th repeat (T47)
For the molecule B1, the binding result is listed as “binds”.
